According to the DeepSol protein solubility set:

assay: soluble on expression in E. coli; label from the status in PepcDB or PDB records

Row | Sequence | soluble on expression in E. coli
1 | MATIKLKFRPSTVQGKAGTLCYQLCHRQENRQITTDMRIFPEWWNETKRELVAVPGNERVLTAYRKRAEKEMRDIREIIRELDCSGETYTLSEILNRYRSLPSEPGFLYYMKKEMETLWENGQYGTSRNYRRALNSFSAFLDGDDIPFSSLDSALACRYESWLWQQKVARNSSSFYMRILRAVYNKAVKQGLAVQTFPFREVYTGVARTSKRAVDEETIRKLQRLDLSGSPALALSRDMFVFSYCARGMAFVDMAYLKKEDVGGGRITYYRHKTGQYLTLRIEPCMVTILERYGRTCPESPYLFPILTDEQPELAYRQYRTGLNYHNRKLKRLGKLLGEPLPLSSYTPRHSWATAARNHDVPIAVISAGMGHSSERTTLIYLDSLDNAIIDNANEKILKGLNDTISM | not soluble
2 | MATLATKKATLVAALKDLQRVTVAFSGGIDSTLVLKMALDVLGRDNVTAVVANSELFTDEEFDKAMSLAEELGANVQGTTLDYLSDDHIKNNTPDSWYYAKKMFYSRLNDIAANNGSAAVLDGMIKNDENDYRPGLKARSEAGARSLLQEADFFKTDVRALAQELGLTNWNKVASCSVSSRFPYGTTLTHDNIAQVMAAEKYLRSLGFPTVRVRFHNDIARIELPEARIGDFLVFNDRVNRQLQSLGFRYVTLDLGGFRSGRMNDTLTKAQLATFA | not soluble
3 | MATLFIADLHLCAEEPAITAGFLRFLAGEARKADALYILGDLFEAWIGDDDPNPLHHQMAAAIKAVSDSGVPCYFIHGNRDFLLGKRFARESGMTLLPEEKVLELYGRRVLIMHGDTLCTDDAGYQAFRAKVHKPWLQTLFLALPLFVRKRIAARMRANSKEANSSKSLAIMDVNQNAVVSAMEKHQVQWLIHGHTHRPAVHELIANQQTAFRVVLGAWHTEGSMVKVTADDVELIHFPF | soluble
4 | MATMARWERIVEGVKSIALIKRKIISRGKRIALLVDGPNILRKELGVHLEDIVEALSSLGNIRVAKVILNQYAPQSLIEAVSNQGFEPVIVAGEIGVKLAVEAMREVYNPNIDIIALATRNTEFVPIILKAKEKGKETAIIGVEPGFSSALKHAADYVIVLESRGELSEEGNIEDIEEGKGEGGRGRRKNDRLDN | soluble
5 | MATPDVSVHMEEVVVVTTPDTAVDGSGVEGVKTVLVTTNLAPHGGDLTEDNMETENAAAAAAAAFTASSQLKEAVLVKMAEEGENLEAEIVYPITCGDSRANLIWRKFVCPGINVKCVQYDEHVISPKEFVHLAGKSTLKDWKRAIRMNGIMLRKIMDSGELDFYQHDKVCSNTCRSTKIDLSGARVSLSSPTSAEYIPLTPAAADVNGSPATITIETCEDPGDWTAAIGDDTFTFWRGLKDAGLLDEVIQEFHQELVETMRGLQQRVQDPPLQLRDAVLLNNIVQNFGMLDLVKKVLASHKCQMDRSREQYARDLAALEQQCDEHRRRAKELKHKSQHLSNVLMTLTPVSLPPPVKRPRLARATSGPAAMASQVLTQSAQLALGPGVPVPQLTSVPLGKVVSTLPSTVLGKGSLQAPPASSPASPLLGGYTVLASSGSTYPSTVEIHPDASSLTVLSTAAVQDGSTVFKVVSPLQLLTLPGLGPTLQNVAQASPGSSTIVTVPAGAAPGPEEHTATIEVAAMAEDHERK | not soluble
6 | MATPTEKQILTLAQWFSPAYPVGAFAYSHGLEWSVEAGDVVDARTAQAWITDVLQHGAGWNDCLFIGSAYRAASLQELKNINDTALAFSASSERMMETRLQGEAFCGITASVWPVDLAGLCYPVAVGRAANLVGLPLTLSGQFYLHAFMANLVTAATRLVPLGQTEGQQIIRDLTPLCQAIADTALCANLSHLTSTAFLGDIAAMKHETQYSRMFRTLEHHHHHH | not soluble
7 | MATQGAWLRMTSSAKSMTKSTVTSKELGFLTSQLSGLRISYTPSDVINRISLPSFPGIQPIVARRICPFTGKKANRANKVSFSNHKTKKLQFVNLQYKRVWWEAGKRFVKLRLSTKALKTIEKNGLDAVAKKAGIDLRKKLEHHHHHH | not soluble
8 | MATQMRLTDTNLLEVLNSEEYSGVLKEFREQRYSKKAILYTPNTERNLVFLVKSGRVRVYLAYEDKEFTLAILEAGDIFCTHTRAFIQAMEDTTILYTDIRNFQNIVVEFPAFSLNMVKVLGDLLKLLLTIINGLVFKDARLRLAEFLVQAAMDTGLKVPQGIKLELGLNTEEIALMLGTTRQTVSVLLNDFKKMGILERVNQRTLLLKDLQKLKEFSSGV | soluble
9 | MATRGPTPDKARMGLPDRWLHCPKTGTLINNLFFPFKTPLCKMYDNQIAERRYQFHPAEVFSHPHLHGKKIGLWIDLTNTDRYYFREEVTEHECIYHKMKMAGRGVSPTQEDTDNFIKLVQEFHKKYPDRVVGVHCTHGFNRTGFLIAAYLFQVEEYGLDAAIGEFAENRQKGIYKQDYIDDLFARYDPTEDDKILAPEKPDWEREMSIGMSTQIDNGRPSTSQQIPATNGNNNQNGNQLSGGGDNSKLFMDGLIRGVKVCEDEGKKSMLQAKIKNLCKYNKQGFPGLQPVSLSRGNINLLEQESYMVSWKADGMRYIIYINDGDVYAFDRDNEVFEIENLDFVTKNGAPLMETLVDTEVIIDKVEINGAMCDQPRMLIYDIMRFNSVNVMKEPFYKRFEIIKTEIIDMRTAAFKTGRLKHENQIMSVRRKDFYDLEATAKLFGPKFVQHVGHEIDGLIFQPKKTKYETGRCDKVLKWKPPSHNSVDFLLKVEKKCKEGMLPEWIGYLFVQNLSDPFGTMKATATLKKYHNKIIECTLLVDNQGRPKEWKFMRERTDKSLPNGLRTAENVVETMVNPVTETYLIEYVNHALRVLKRAAAAHRHHQIHQQQLHEGEPEARRQKL | not soluble
10 | MATRPKTIWESFLSPVVRFLMDEDKWRRYAQSIDWEKESDRFRRTDVIIPSYYTSQNFHGIEGGYLNSSAAVTYDPITEYVLPPNETLVRQALIDGVKVQPRRILDLGCGTGSTTLMLKQAFPQADVIGLDLSPYMLVRAEDKARTADLDISWRHGNAEKTSFPNASFDLVTTSLLFHETPVEVSQTILQECFRLLVAGGQVIILDGNQKSLRQLNWLNDIFEEPYIREYAADNLDARMGAAGFVGVQTEDLWLIHQVTSGIKPILATDTNQIKDRQYMPAIDNNNLEGLESPAFGIVALEHHHHHH | not soluble
11 | MATSFRYGHGGSYKSACAVWFDLLPALREGRICITNIHGMQPLEVIEQRLGEKFPDTARLIRISSRNPEGFELWKYFFCWAPIGAFILIDECQQIFSVNAGFKMANIHKRPFTDFEPHLPEGFSELFHSRWLTIDTSSLDNGEIDDCQRTRFDEQGRIIYPENFNNAFMEHRHYNWDIVLLTPDFAQIPKELKGVAELAKQHKGKDGIFFSNRKPRILEHDPTRTVTKPSKDDVVYNLKVPLDVHLLYASTVTGQ | not soluble
12 | MATSKLQAIWNHPAGPKTIHFWAPTFKWGISIANIADFAKPPEKLSYPQQIAVTCTGVIWSRYSMVINPKNWNLFSVNVAMAGTGIYQLARKIKHDYATEAEPAVASE | soluble
13 | MATSVLCCLRCCRDGGTGHIPLKEMPAVQLDTQHMGIWGIGVATQKVNLNQIPLGRDMHSLVMRNDGALYHNNEEKNRLPANSLPQEGDVVGITYDHVELNVYLNGKNMHCPASGIRGTVYPVVYDDDSAILDCQFSEFYHTPPPGFEKILFEQQIF | not soluble
14 | MATTKLSATKSTSRAINYAEKRAVEKSGLNCDVDYAKSSFKAARELYGKTDGNQGHVIIQSFQPGEVTPEQCNQLGLALAEKLVPNHQVAVYTHADTNHVHNHIVLNSIDLNTGKKFNNNKQALRDVRAFNDEVCRAQGLSVPEKDTARLRYTQTEKAIADPNTTSTAQYSWKDDIREAIDQSTATNMEEFQKHLNQHGITIERVTPKSITYRHLAENKKVRGRKLGEDYNKGGIQHGFERQIQRRQQQKHKSDTNFQPKRSTSNRHESTERDTGVTQSDWDQFAQDTNELERRRQAAESARLVDEKARRDREKRVREKPTSRPIINIDRDHGLEL | not soluble
15 | MATTKRVLYVGGLAEEVDDKVLHAAFIPFGDITDIQIPLDYETEKHRGFAFVEFELAEDAAAAIDNMNESELFGRTIRVNLAKPMRIKE | soluble
16 | MATTLKPVDAVVVGFGWTGAILAKELTEAGLNVVALERGENRDTYPDGAYPNTLDELTYNTRGKLFQNLSKSTVSIRHGINDTALPYRQLSAFLPGDGVGGAGLHWSGVHFRIMPEELRLRSHYEERYGKKFIPEGMTIQDYGVSYEELEPHFDFAEKVFGTSGTAHTVKGQVVGKGNPFAADRSDDFPLPALRQVYSAQLFRKAAEELGLHPYDLPAANASGPWTNPYGVQMGPCNFCGFCSGYACYMYSKASPNLNILPALRQTPLFELRANCNVLKVNLDSDGRQATGVTYVDAQGREIVQPAKLVIISAFQFHNVRLLLLSGIGKPYDPRTGEGVVGKNFAYQNMATIKAFFDKDVHTNPFVGTGGGGVAVDDFNADNFDHGPLGFVGGSPMWVNQAGSKPIGGLAVPPGTPSWGSGWKQAVKDAYTHTVSMDAHGSNMTYRDNYLDLDPTYKDAYGQPLLRMTFDWKDNEIRMSRYVTEHMRKIAEAMNPKAISVSVKNFGDHFNTRVYQTTHLLGGAIMGSDPKTSVLNRYLQSWDVHNVFVMGASAFPQGTGYNPTGLVAALAYWSAKAIREQYLKNPGPLVQALEHHHHHH | not soluble
17 | MATVSDDYAQIDISTEEKDKLVAEVMRHVLFKTHQTAGCPIKREELTQIVTKNYRQRVLPALVIKEAGDRLAATFGYEMRELQRTRAPSTRSGRPSQQQVNVDAKSYVLVSKLDPEVYSKYVEHKEAAHVSGFAFVVISIVHLSGGKISEEDLWHQLRRLGLNESDENHPVLGNNKQALELLVQQRYLLKEKLSGPEGHSMMYELAERALDESISGKLKDYISQVVSTSTAAEVD | soluble
18 | MAVAPTAREENVYMAKLAEQAERYEEMVEFMEKVSNSLGSEELTVEERNLLSVAYKNVIGARRASWRIISSIEQKEESRGNEEHVNSIREYRSKIENELSKICDGILKLLDAKLIPSAASGDSKVFYLKMKGDYHRYLAEFKTGAERKEAAESTLTAYKAAQDIATTELAPTHPIRLGLALNFSVFYYEILNSPDRACNLAKQAFDEAIAELDTLGEESYKDSTLIMQLLRDNLTLWTSDMQDDGADEIKEDPKPDEAKN | soluble
19 | MAVEEFNQNLNEIMKFKECNITVDTCVVIDGRITELISDGTIEKCTIIVPEAVISELEAQANKGREIGYFGIEELKKLVKVAKENEMVLEYYGERPSTGEVSLAKAGEIDAMIRKVAKDTNSILFTSDRIQYNLAIAQNINAHFLKVHEEKVDLKLV | not soluble
20 | MAVIEAEGLWKIFGGDPERARTLAKEGMSKAEVKEETGSVIAVDDANFEVQEQEIFVVMGLSGSGKSTLLRCVNRLIEPTFGKVHVHDDEVTAFDEDRLRKLRRTKMSMVFQNFGLFPHRTVIGNVEYGLEVAGMDKEKRRGKARQSLELVGLDGYEDSQTSQLSGGMQQRVGLARALVNDPEILLMDEAFSALDPLIRADMQNELLELQEQWDPACTILFITHDLDEALKMGDRIAIMKDGRIAQIGTPTEILTEPADEYVRSFVENVDRTKIVPARTVMRALGDDETVAADGPSVSPHTPIAELLPALVDADGPLAVRDSGGTLQGVVSQDAVMEEVVQNADGARRRDARAGRTDEDPEAAVALEHHHHHH | soluble
